Data published in IntAct's records for PubMed 18562279.

Target: akt1_human AKT1 (UniProt P31749)
Sequence (P31749 whole entry): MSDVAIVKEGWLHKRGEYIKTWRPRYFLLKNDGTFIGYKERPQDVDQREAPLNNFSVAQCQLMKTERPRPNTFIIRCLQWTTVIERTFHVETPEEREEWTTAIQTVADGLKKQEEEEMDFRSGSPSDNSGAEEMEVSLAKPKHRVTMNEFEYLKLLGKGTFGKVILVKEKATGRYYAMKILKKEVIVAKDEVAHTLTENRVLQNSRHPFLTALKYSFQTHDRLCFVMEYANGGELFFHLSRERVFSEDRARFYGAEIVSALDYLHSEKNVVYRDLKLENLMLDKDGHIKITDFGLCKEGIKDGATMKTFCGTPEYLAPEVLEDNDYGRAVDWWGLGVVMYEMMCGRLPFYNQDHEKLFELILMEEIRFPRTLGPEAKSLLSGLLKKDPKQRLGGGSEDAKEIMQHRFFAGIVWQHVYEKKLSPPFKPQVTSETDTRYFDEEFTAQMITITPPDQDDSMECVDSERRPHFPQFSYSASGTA

Substance | effect of a mutation on the interaction
THO complex subunit 4 (Homo sapiens) (from UniProt Q86V81) T219A | disrupting interaction
THO complex subunit 4 (Homo sapiens) (from UniProt Q86V81) S34A | disrupting interaction
